Measured values as given in patent US20240391997A1 (BRIGHTPATH BIOTHERAPEUTICS, published 2024).
Changes are numbered by the printed parent chain. In names and notes the source's numbering stands. Values belong to the binder of their own block, whether it stands above or below them.

Experiments:
[1] = target: T1, biotinylated human Tim-3-Fc antigen (in-house preparation) (human, biotinylated); assay: competition ELISA, biotinylated Tim-3-Fc premixed with antibody, binding to coated human Galectin-9
T1 construct: limits of the Tim-3 part not given

[2] = target: T1, biotinylated human Tim-3-Fc antigen …; assay: competition flow cytometry, biotinylated Tim-3-Fc premixed with antibody, binding to phosphatidylserine on apoptotic Jurkat cells (ligand not a protein)
[3] = target: T1, biotinylated human Tim-3-Fc antigen …; assay: competition ELISA, biotinylated Tim-3-Fc premixed with antibody, binding to coated human Galectin-9; remark: listed apart in the source
[4] = target: T2, human Tim-3 expressed on cells (Jurkat cells stably expressing, Expi293 cells transiently expressing, … (human, UniProt Q8TDQ0 22-301)); assay: flow cytometry on Jurkat cells stably expressing human Tim-3, KD from MFI curve
T2 construct: whole, on cells; One entry for all cell-surface forms; the cell type is named under assay; also called human Tim-3 expressed on the cell membrane

[5] = target: T2, human Tim-3 expressed on cells (Jurkat …); assay: flow cytometry on Expi293 cells transiently expressing human Tim-3, KD from MFI curve
[6] = target: T3, human Tim-3 IgV domain (aa. 22-130) (human, UniProt Q8TDQ0 22-130); assay: gel filtration of the complex and X-ray crystallography, 2.11 angstrom
T3 construct: range 22-130

[7] = target: T2, human Tim-3 expressed on cells (Jurkat …); assay: flow cytometry on activated human CD4 T cells, KD from MFI curve
[8] = target: T2, human Tim-3 expressed on cells (Jurkat …); assay: flow cytometry on activated human CD8 T cells, KD from MFI curve
[9] = target: T1, biotinylated human Tim-3-Fc antigen …; assay: competition ELISA: biotinylated human Tim-3-Fc premixed with the antibody, added to plate-bound human Galectin-9 (blocked ligand); streptavidin-HRP; Binding (%)
[10] = target: T1, biotinylated human Tim-3-Fc antigen …; assay: competition flow cytometry, biotinylated Tim-3-Fc premixed with antibody, binding to phosphatidylserine on apoptotic Jurkat cells (ligand not a protein); remark: listed apart in the source
[11] = target: T2, human Tim-3 expressed on cells (Jurkat …); assay: flow cytometry on activated human CD4 T cells, KD from MFI curve; remark: listed apart in the source
[12] = target: T2, human Tim-3 expressed on cells (Jurkat …); assay: flow cytometry on activated human CD8 T cells, KD from MFI curve; remark: listed apart in the source
[13] = target: T2, human Tim-3 expressed on cells (Jurkat …); assay: flow cytometry on Jurkat cells stably expressing human Tim-3, KD from MFI curve; remark: listed apart in the source
[14] = target: T2, human Tim-3 expressed on cells (Jurkat …); assay: flow cytometry on Expi293 cells transiently expressing human Tim-3, KD from MFI curve; remark: listed apart in the source
[15] = target: T2, human Tim-3 expressed on cells (Jurkat …); assay: flow cytometry on Jurkat cells stably expressing human Tim-3, KD from MFI curve; remark: listed apart in the source
[16] = target: T1, biotinylated human Tim-3-Fc antigen …; assay: competition flow cytometry, biotinylated Tim-3-Fc premixed with antibody, binding to phosphatidylserine on apoptotic Jurkat cells (ligand not a protein); remark: listed apart in the source
[17] = target: T2, human Tim-3 expressed on cells (Jurkat …); assay: flow cytometry on activated human CD4 T cells, KD from MFI curve; remark: listed apart in the source
[18] = target: T2, human Tim-3 expressed on cells (Jurkat …); assay: flow cytometry on Expi293 cells transiently expressing human Tim-3, KD from MFI curve; remark: listed apart in the source
[19] = target: T1, biotinylated human Tim-3-Fc antigen …; assay: competition ELISA, biotinylated Tim-3-Fc premixed with antibody, binding to coated human Galectin-9; remark: listed apart in the source
[20] = target: T2, human Tim-3 expressed on cells (Jurkat …); assay: flow cytometry on activated human CD8 T cells, KD from MFI curve; remark: listed apart in the source

- binding result [6]: binds
B2: Hu149_83_scFv antibody (scFv, not shown: small tags and cut ends)
scFv: QVQLVQSGAEVKKPGASVKVSCKASGYTFTDYYMDWVRQAPGQGLEWLGYIYPNKGGTSYNQKFKGRVTMTTDKSTSTAYMELRSLRSDDTAVYYCARSGYGNYYTMDYWGQGTTVTVSSGGGGSGGGGSGGGGSGGGGSDIVMTQSQKFMSTSVGDRVSITCKASQSVGNNVAWYQQKPGQSPKLLIYYASNRYTGVPDRFTGSGSGTDFTLTISNMQSEDLADYFCQQHYSSPSTFGGGTKLEIK
notes: Secreted from E. coli with an N-terminal pelB leader (left out)

- inhibition of the binding between human Tim-3 and human Galectin-9 [1]: ≥ 90%
- Kd [7]: 279 pM
- Kd [8]: 263 pM
- IC50 [2]: 27300 pM
- IC50 [3]: 712 pM
- Kd [4]: 232 pM
- Kd [5]: 2300 pM
B3: Hu428003ct antibody (bispecific antibody, not shown: a dimerising Fc or GST)
scFv 1: QVQLQESGGGLVKPGGSLKLSCAASGFTFSSYYMSWVRQTPDKRLEWVATISNSGGSTYYPDSVKDRFTISRDNAKNTLYLQMSSLKSEDTAMYYCARDPYYTNYVPMDYWGQGTMVTVSSGGGGSGGGGSGGGGSGGGGSDIVMTQSPSFLSASVGDRVTITCKASQYVDTYVAWYQQRPGKAPKPLIYSASTRHTGVPSRFSGSGSGTEFTLTISSLQPEDFATYFCAQYSSSPLTFGGGTKLELK
scFv 2: B2 scFv with S99G, G102Y, N103S, T106S, M107Y, S236Y

- inhibition of the binding between human Tim-3 and human Galectin-9 [1]: ≥ 90%
- Kd [7]: 917 pM
- Kd [8]: 970 pM
- IC50 [2]: 32300 pM
- IC50 [3]: 1120 pM
- Kd [4]: 904 pM
- Kd [5]: 4160 pM
B4: Hu149003ct antibody (bispecific antibody, not shown: a dimerising Fc or GST)
scFv 1: B3 scFv 1
scFv 2: B2 scFv

- Kd [11]: 105 pM
- Kd [12]: 112 pM
- IC50 (read off the curve) [9]: ~500 pM
- Kd [13]: 82.8 pM
- IC50 [10]: 9910 pM
- Kd [14]: 891 pM
B6: Ch003-LA antibody (antibody, V domains shown)
VH: EVMLMESGGGLVKLGGSLKLSCAASGFTFSSYYMSWVRQTPEKRLEWVATISNSGGSIYYLDSVKDRFTISRDNAKNTLYLQMSSLNSEDTAVYYCARDPYYSNYVPMDYWGQGTSVTVSS
VL: SIVMTQTPKFMSTSVGDRVSVTCKASQYVDTYVAWYQQKPGQSPKPLIYSASTRHTGVPARFTGSGSGTDFTLTISNVQSEDLAEYFCAQYSSSPLTFGAGTKLELK
notes: IgG1_LALA type antibody (L234A and L235A in the Fc region of IgG1)

- inhibition of the binding between human Tim-3 and human Galectin-9 [1]: ≥ 90%
- Kd [15]: 404 pM
- IC50 [16]: 22900 pM
- Kd [17]: 508 pM
- Kd [20]: 558 pM
- Kd [18]: 2170 pM
- IC50 [19]: 589 pM
B8: Ch149003ct antibody (bispecific antibody, not shown: a dimerising Fc or GST)
scFv 1: EVMLMESGGGLVKLGGSLKLSCAASGFTFSSYYMSWVRQTPEKRLEWVATISNSGGSIYYLDSVKDRFTISRDNAKNTLYLQMSSLNSEDTAVYYCARDPYYSNYVPMDYWGQGTSVTVSSGGGGSGGGGSGGGGSGGGGSSIVMTQTPKFMSTSVGDRVSVTCKASQYVDTYVAWYQQKPGQSPKPLIYSASTRHTGVPARFTGSGSGTDFTLTISNVQSEDLAEYFCAQYSSSPLTFGAGTKLELK
scFv 2: QVQLQQSGPERVKPGDSVKMSCKASGYTFTDYYMDWVKQSHGKSLEWIGYIYPNNGGTSYNQKFKGKATLTVDKSSSTAYMELHSLTSEDSAVYYCARSGYGNYYTMDYWGQGTSVTVSAGGGGSGGGGSGGGGSGGGGSSIVMTQTPKFMPVSAGDRVTMTCKASQSVGNNVAWYQQKPGQSPKLLIYYASNRYTGVPDRFTGSGSGTDFTFTISSVQVEDLAVYFCQQHYSSPSTFGTGTKLEIK

The remaining lines, values behind:

B1: Hu621003ct antibody (bispecific antibody, not shown: a dimerising Fc or GST)
scFv 1: B3 scFv 1
scFv 2: B2 scFv with G102K, N103A, T106A, S236Y
- inhibition of the binding between human Tim-3 and human Galectin-9 [1]: ≥ 90%
- IC50 [2]: 32300 pM
- IC50 [3]: 819 pM
- Kd [4]: 283 pM
- Kd [5]: 2270 pM

B5: Hu003_13_F20_LA antibody (antibody, V domains shown)
VH: QVQLQESGGGLVKPGGSLKLSCAASGFTFSSYYMSWVRQTPDKRLEWVATISNSGGSTYYPDSVKDRFTISRDNAKNTLYLQMSSLKSEDTAMYYCARDPYYTNYVPMDYWGQGTMVTVSS
VL: DIVMTQSPSFLSASVGDRVTITCKASQYVDTYVAWYQQRPGKAPKPLIYSASTRHTGVPSRFSGSGSGTEFTLTISSLQPEDFATYFCAQYSSSPLTFGGGTKLELK
- IC50 (read off the curve) [9]: ~500 pM
- IC50 [10]: 10700 pM

B7: Ch428003ct antibody (bispecific antibody, not shown: a dimerising Fc or GST)
scFv 1: B8 scFv 1
scFv 2: QVQLQQSGPELVKPGDSVKMSCKASGYTFTDYYMDWVKQSHGKSLEWIGYIYPNNGGTSYNQKFKGKATLTVDKSSSTAYMELHSLTSEDSAVYYCARGGYYSYYSYDYWGQGTTLTVSSGGGGSGGGGSGGGGSGGGGSSIVMTQTPKFLPVSAGDRVTMTCKASQSVGNNVAWYQQKPGQSPKLLIYYASNRYTGVPDRFTGSGSGTDFTFTISSVQVEDLAVYFCQQHYSSPYTFGTGTKLEIK
- inhibition of the binding between human Tim-3 and human Galectin-9 [1]: ≥ 90%
- Kd [15]: 194 pM
- IC50 [16]: 12800 pM
- Kd [17]: 218 pM
- Kd [18]: 1370 pM
- IC50 [19]: 454 pM

B9: Ch621003ct antibody (bispecific antibody, not shown: a dimerising Fc or GST)
scFv 1: B8 scFv 1
scFv 2: B7 scFv 2 with V2I, G99S, Y102K, S103A, S106A, Y107M, T240S
- inhibition of the binding between human Tim-3 and human Galectin-9 [1]: ≥ 90%
- Kd [15]: 256 pM
- IC50 [16]: 16300 pM
- Kd [17]: 287 pM
- Kd [20]: 308 pM
- Kd [18]: 1820 pM
- IC50 [19]: 751 pM
